Measurements reported in patent publication US20170112792A1, “ENHANCED ATRA-RELATED COMPOUNDS DERIVED FROM STRUCTURE-ACTIVITY RELATIONSHIPS AND MODELING FOR INHIBITING PIN1” (Beth Israel Deaconess Medical Center, Inc., priority 2014, published 2017).

Molecular target: pSer110 peptide (IRAKM residues 103-124 with Ser110 phosphorylated)
Test: NMR titration, 1H-15N HSQC chemical shift changes

pSer110 peptide (IRAKM residues 103-124 with Ser110 phosphorylated), sequence (peptide, as listed by the source limits assumed): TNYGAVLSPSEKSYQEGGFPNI

Kd: 60.7 µM
Substance: 15N-labeled Pin1 WW domain (Pin1 residues 1-50) (from UniProt Q13526 1-50)
